# Measured values from article PMC6894054.
# Tested on: ILF3 mouse-human dsRBM2 (SPR) (mouse-human (so in the source))
# Assay: SPR
# Conditions: ELISA and SPR buffers not given in the material (SPR: Biacore T100, biotin-RNA on streptavidin chip); biopanning: TENT (10 mM Tris-HCl pH 8.0, 1 mM EDTA, 250 mM)
substance,measurement,value
invSINEB2 of AS Uchl1,Kd,94.9 nM
